Assay results: PMC9482650, “Quantitative fragmentomics allow affinity mapping of interactomes” (Nature Communications, 2022)
Values belong to the binder of their own block, whether it stands above or below them.

How the values were obtained:
Experiment in all cases: holdup assay
Design in all cases: key: below the threshold = too weak to quantify, mostly under pKd 3.1 to 4
[1] = target: T1, LIN7C, Q9NUP9
T1 sequence (Q9NUP9 88-185, limits assumed, looked up): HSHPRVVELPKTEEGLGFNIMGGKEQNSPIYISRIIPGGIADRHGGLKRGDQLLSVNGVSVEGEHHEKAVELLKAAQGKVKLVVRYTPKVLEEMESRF

[2] = target: TJP1_3, Q07157
[3] = target: MAGI1_1, Q96QZ7
[4] = target: T2, TIAM2, Q8IVF5
T2 sequence (Q8IVF5 885-986, limits assumed, looked up): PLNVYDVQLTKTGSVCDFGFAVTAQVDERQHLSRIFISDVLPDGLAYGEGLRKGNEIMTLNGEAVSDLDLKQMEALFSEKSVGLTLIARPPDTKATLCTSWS

[5] = target: DLG1_2, Q12959
[6] = target: T3, LRRC7, Q96NW7
T3 sequence (Q96NW7 1440-1537, limits assumed, looked up): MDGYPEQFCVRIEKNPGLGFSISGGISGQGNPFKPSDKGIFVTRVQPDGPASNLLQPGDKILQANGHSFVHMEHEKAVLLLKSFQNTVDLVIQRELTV

[7] = target: T4, DLG3_1, Q92796
T4 sequence (Q92796 125-227, limits assumed, looked up): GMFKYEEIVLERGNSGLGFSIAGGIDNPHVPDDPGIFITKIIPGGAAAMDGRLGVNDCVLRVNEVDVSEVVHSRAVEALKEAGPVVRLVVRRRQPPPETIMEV

[8] = target: NHERF2_2, Q15599
[9] = target: MAST2, Q6P0Q8
[10] = target: T5, PTPN13_1, Q12923
T5 sequence (Q12923 1088-1188, limits assumed, looked up): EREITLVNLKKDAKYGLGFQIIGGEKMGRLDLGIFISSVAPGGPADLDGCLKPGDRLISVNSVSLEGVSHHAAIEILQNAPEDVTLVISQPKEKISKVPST

[11] = target: T6, NHERF3_4, Q5T2W1
T6 sequence (Q5T2W1 373-468, limits assumed, looked up): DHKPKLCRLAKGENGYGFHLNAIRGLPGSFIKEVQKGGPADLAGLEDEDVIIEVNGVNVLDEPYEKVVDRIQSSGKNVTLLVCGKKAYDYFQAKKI

[12] = target: DLG1_3, Q12959
[13] = target: T7, MPDZ_12, O75970
T7 sequence (O75970 1857-1958, limits assumed, looked up): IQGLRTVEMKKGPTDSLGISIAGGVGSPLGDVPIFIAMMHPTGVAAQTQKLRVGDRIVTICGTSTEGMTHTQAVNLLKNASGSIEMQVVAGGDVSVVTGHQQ

[14] = target: MAGI2_6, Q86UL8
[15] = target: T8, PDZRN3_1, Q9UPQ7
T8 sequence (Q9UPQ7 244-349, limits assumed, looked up): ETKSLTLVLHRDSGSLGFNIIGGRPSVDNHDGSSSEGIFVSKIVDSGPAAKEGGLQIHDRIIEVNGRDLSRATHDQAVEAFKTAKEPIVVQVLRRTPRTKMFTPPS

[16] = target: Inadl_9, Q8NI35
[17] = target: T9, ARHGEF11, O15085
T9 sequence (O15085 42-136, limits assumed, looked up): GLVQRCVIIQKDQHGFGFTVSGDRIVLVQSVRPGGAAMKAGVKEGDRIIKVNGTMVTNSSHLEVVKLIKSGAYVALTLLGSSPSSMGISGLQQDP

[18] = target: AHNAK1, Q09666
[19] = target: T10, DFNB31_1, Q9P202
T10 sequence (Q9P202 135-233, limits assumed, looked up): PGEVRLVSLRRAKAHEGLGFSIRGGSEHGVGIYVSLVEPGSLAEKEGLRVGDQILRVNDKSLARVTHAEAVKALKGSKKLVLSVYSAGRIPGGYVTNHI

[20] = target: T11, DFNB31_3, Q9P202
T11 sequence (Q9P202 811-907, limits assumed, looked up): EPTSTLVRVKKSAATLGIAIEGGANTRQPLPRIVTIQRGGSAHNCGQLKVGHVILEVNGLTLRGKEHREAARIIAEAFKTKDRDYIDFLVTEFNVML

[21] = target: LNX1_3, Q8TBB1
[22] = target: Inadl_1, Q8NI35
[23] = target: NHERF4_4, Q86UT5
[24] = target: HTRA2, O43464
[25] = target: T12, APBA2_1, Q99767
T12 sequence (Q99767 563-664, limits assumed, looked up): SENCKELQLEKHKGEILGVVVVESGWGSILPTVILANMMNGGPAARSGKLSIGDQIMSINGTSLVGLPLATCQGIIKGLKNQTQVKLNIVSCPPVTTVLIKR

[26] = target: NHERF4_2, Q86UT5
[27] = plain residues with an end cap or a label only (N-terminal biotin on a linker: ado-ado)
[28] = modified: phospho on T at position -1 from the C-terminal residue

Chain of DLG1_2, Q12959 (Q12959 314-412): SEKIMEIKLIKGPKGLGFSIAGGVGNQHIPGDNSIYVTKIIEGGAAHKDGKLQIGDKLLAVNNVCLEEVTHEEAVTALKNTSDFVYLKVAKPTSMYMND
Chain of LNX1_3, Q8TBB1 (Q8TBB1 500-596): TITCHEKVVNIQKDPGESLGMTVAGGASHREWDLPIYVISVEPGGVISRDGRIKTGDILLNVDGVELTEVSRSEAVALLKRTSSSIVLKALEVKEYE
Chain of AHNAK1, Q09666 (Q09666 4-100): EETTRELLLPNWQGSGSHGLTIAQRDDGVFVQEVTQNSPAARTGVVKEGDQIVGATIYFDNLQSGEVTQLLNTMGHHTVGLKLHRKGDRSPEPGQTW
Chain of NHERF4_2, Q86UT5 (Q86UT5 220-308): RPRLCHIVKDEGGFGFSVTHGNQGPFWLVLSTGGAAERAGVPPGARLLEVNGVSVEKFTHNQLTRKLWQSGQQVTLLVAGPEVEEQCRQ
Chain of NHERF2_2, Q15599 (Q15599 142-238): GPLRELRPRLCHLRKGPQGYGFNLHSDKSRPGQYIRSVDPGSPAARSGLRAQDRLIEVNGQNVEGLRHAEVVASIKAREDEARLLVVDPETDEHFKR
Chain of MAGI2_6, Q86UL8 (Q86UL8 1141-1229): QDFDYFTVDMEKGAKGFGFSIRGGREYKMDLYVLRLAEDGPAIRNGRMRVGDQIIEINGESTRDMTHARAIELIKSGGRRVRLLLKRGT
Chain of NHERF4_4, Q86UT5 (Q86UT5 464-550): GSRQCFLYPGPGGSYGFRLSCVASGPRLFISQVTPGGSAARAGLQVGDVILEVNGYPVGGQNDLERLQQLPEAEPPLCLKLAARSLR
Chain of MAST2, Q6P0Q8 (Q6P0Q8 1099-1202): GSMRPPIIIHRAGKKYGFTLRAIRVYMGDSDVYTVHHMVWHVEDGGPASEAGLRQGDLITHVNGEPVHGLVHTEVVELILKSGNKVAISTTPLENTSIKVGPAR
Chain of TJP1_3, Q07157 (Q07157 416-512): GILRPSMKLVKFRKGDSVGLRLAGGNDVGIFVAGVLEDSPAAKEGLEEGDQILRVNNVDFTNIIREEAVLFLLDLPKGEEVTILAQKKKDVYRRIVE
Chain of MAGI1_1, Q96QZ7 (Q96QZ7 1-106): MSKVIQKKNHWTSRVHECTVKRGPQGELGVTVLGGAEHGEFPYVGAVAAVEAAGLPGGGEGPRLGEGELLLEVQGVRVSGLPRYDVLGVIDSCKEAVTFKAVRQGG
Chain of Inadl_9, Q8NI35 (Q8NI35 1530-1615): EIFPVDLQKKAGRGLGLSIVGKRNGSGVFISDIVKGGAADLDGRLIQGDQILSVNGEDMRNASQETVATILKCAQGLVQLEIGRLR
Chain of Inadl_1, Q8NI35 (Q8NI35 113-229): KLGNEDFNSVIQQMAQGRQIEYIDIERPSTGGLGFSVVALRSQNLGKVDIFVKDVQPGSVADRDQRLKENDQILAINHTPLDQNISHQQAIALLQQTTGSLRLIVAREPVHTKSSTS
Chain of DLG1_3, Q12959 (Q12959 457-571): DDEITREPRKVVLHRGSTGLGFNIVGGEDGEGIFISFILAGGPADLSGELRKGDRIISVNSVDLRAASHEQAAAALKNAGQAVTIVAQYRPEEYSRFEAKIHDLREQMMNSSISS
Chain of HTRA2, O43464 (O43464 355-458): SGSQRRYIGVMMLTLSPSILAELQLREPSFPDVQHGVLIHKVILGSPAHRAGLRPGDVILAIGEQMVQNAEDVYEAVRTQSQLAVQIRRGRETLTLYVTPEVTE

- pKd [1, 27]: below the threshold
- pKd [2, 27]: below the threshold
- pKd [3, 27]: below the threshold
- pKd [4, 27]: below the threshold
- pKd [5, 27]: 4.98
- pKd [6, 27]: below the threshold
- pKd [7, 27]: 3.71
- pKd [8, 27]: below the threshold
- pKd [9, 27]: 4.65
- pKd [10, 27]: below the threshold
- pKd [11, 27]: 3.5
- pKd [12, 27]: 4.39
- pKd [13, 27]: below the threshold
- pKd [14, 27]: below the threshold
- pKd [15, 27]: 4.35
- pKd [16, 27]: below the threshold
- pKd [17, 27]: 3.89
- pKd [18, 27]: below the threshold
- pKd [19, 27]: 4
- pKd [20, 27]: below the threshold
- pKd [21, 27]: below the threshold
- pKd [22, 27]: below the threshold
- pKd [23, 27]: below the threshold
- pKd [24, 27]: below the threshold
- pKd [25, 27]: below the threshold
- pKd [26, 27]: below the threshold
B1: CACNG4, Q9UBN1 (peptide)
chain: SMLNRRTTPV

- pKd [1, 28]: 3.56
- pKd [2, 28]: below the threshold
- pKd [3, 28]: 3.33
- pKd [4, 28]: 3.41
- pKd [5, 28]: 3.83
- pKd [6, 28]: 3.47
- pKd [7, 28]: 3.57
- pKd [8, 28]: 4.02
- pKd [9, 28]: 5.17
- pKd [10, 28]: 3.4
- pKd [11, 28]: 3.75
- pKd [12, 28]: 3.7
- pKd [13, 28]: below the threshold
- pKd [14, 28]: 3.83
- pKd [15, 28]: 4.26
- pKd [16, 28]: below the threshold
- pKd [17, 28]: 4.29
- pKd [18, 28]: 3.52
- pKd [19, 28]: 3.6
- pKd [20, 28]: 3.78
- pKd [21, 28]: 3.39
- pKd [22, 28]: 3.35
- pKd [23, 28]: below the threshold
- pKd [24, 28]: 3.49
- pKd [25, 28]: below the threshold
- pKd [26, 28]: below the threshold
B2: RPS6KA1_-1P, Q15418 (peptide)
chain: RRVRKLPSTTL
